The data set deals with Escherichia coli TOP10. Briefly: shrunken log2 fold change of peptide-encoding DNA abundance (4.5 h post-induction vs induction); higher = less antimicrobial activity (less host growth inhibition). The note with it: time post-induction: 4.5 h; library: site-saturation at positions 5, 18, 19, 20.
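Note: peptides expressed intracellularly from a pBAD plasmid library in pooled LB shake-flask culture, induced with 0.3% L-arabinose, DNA abundance read by NGS, three biological replicates, DESeq2 with apeglm shrinkage.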

As to RRIRHRPPRLPRPRPRPIITPRP, the “shrunken log2 fold change” value was -1.46.
The value for RRIRDRPPRLPRPRPRPDTYPRP was -0.0814; that for RRIRERPPRLPRPRPRPAFQPRP was 0.0677; that for RRIRVRPPRLPRPRPRPFVSPRP was -0.679.
The value for RRIRTRPPRLPRPRPRPPEVPRP was 0.0579; that for RRIRFRPPRLPRPRPRPKPCPRP was 0.3; that for RRIRARPPRLPRPRPRPSKGPRP was -0.133.
As to RRIRTRPPRLPRPRPRPTTTPRP, the “shrunken log2 fold change” value came out at 0.168.
The value for RRIRTRPPRLPRPRPRPCIHPRP was -0.11; that for RRIRNRPPRLPRPRPRPWQCPRP was -0.108; that for RRIRVRPPRLPRPRPRPYQSPRP was -0.0308.
Under RRIRYRPPRLPRPRPRPWFQPRP stands -0.00061; under RRIRDRPPRLPRPRPRPSFRPRP, -0.198; under RRIRIRPPRLPRPRPRPWRIPRP, -0.409.
RRIRIRPPRLPRPRPRPNLIPRP: the “shrunken log2 fold change” value is -0.654.
Under RRIRRRPPRLPRPRPRPALDPRP stands 0.586.
In the case of RRIRNRPPRLPRPRPRPPSIPRP, the “shrunken log2 fold change” value is -0.0153.
RRIRERPPRLPRPRPRPNKPPRP: the “shrunken log2 fold change” value was -0.0937.
In the case of RRIRYRPPRLPRPRPRPIVLPRP, the “shrunken log2 fold change” value is -0.213.
On to RRIRKRPPRLPRPRPRPEKEPRP, for which the “shrunken log2 fold change” value was determined as 0.139.
Under RRIRYRPPRLPRPRPRPYVNPRP stands -0.361; under RRIRPRPPRLPRPRPRPIQSPRP, -0.083; under RRIRKRPPRLPRPRPRPGFRPRP, 0.942.
On to RRIRERPPRLPRPRPRPNAYPRP, for which the “shrunken log2 fold change” value is -0.0628.
The value for RRIRVRPPRLPRPRPRPPESPRP was 0.201; that for RRIRKRPPRLPRPRPRPNTYPRP was 0.0436; that for RRIRERPPRLPRPRPRPKLFPRP was -0.0593.
Under RRIRERPPRLPRPRPRPNMFPRP stands -0.615; under RRIRRRPPRLPRPRPRPPINPRP, 0.0262; under RRIRGRPPRLPRPRPRPPMLPRP, 0.555.
The value for RRIRQRPPRLPRPRPRPNCQPRP was -0.055; that for RRIRIRPPRLPRPRPRPQNDPRP was -0.296; that for RRIRPRPPRLPRPRPRPMCHPRP was -0.22.
Turning to RRIRKRPPRLPRPRPRPLMHPRP, the “shrunken log2 fold change” value stood at 0.0704.
Consider RRIRGRPPRLPRPRPRPKDGPRP, for which the “shrunken log2 fold change” value worked out at 0.798.
Under RRIRMRPPRLPRPRPRPNKEPRP stands 0.127.
As to RRIRCRPPRLPRPRPRPIAQPRP, the “shrunken log2 fold change” value amounted to 0.00422.
The value for RRIRVRPPRLPRPRPRPAQNPRP was 0.261; that for RRIRLRPPRLPRPRPRPTTQPRP was 0.216.
The value for RRIRTRPPRLPRPRPRPKQCPRP was -0.00809.
Turning to RRIRFRPPRLPRPRPRPQVAPRP, the “shrunken log2 fold change” value was 0.147.
Under RRIRMRPPRLPRPRPRPEGPPRP stands 0.578; under RRIRNRPPRLPRPRPRPVTDPRP, -0.013.
The value for RRIRRRPPRLPRPRPRPICSPRP was 0.0991.
The value for RRIRQRPPRLPRPRPRPPNAPRP was 0.285; that for RRIRIRPPRLPRPRPRPHFHPRP was -0.424.
As for RRIRPRPPRLPRPRPRPSCIPRP, the “shrunken log2 fold change” value is -0.749.
Take RRIRARPPRLPRPRPRPVLKPRP: the “shrunken log2 fold change” value amounted to 0.22.
Under RRIRNRPPRLPRPRPRPPFEPRP stands 0.128; under RRIRYRPPRLPRPRPRPAMQPRP, -0.0244.
On to RRIRHRPPRLPRPRPRPFLWPRP, for which the “shrunken log2 fold change” value was -0.353.
In the case of RRIRMRPPRLPRPRPRPYVQPRP, the “shrunken log2 fold change” value is 0.056.
The value for RRIRSRPPRLPRPRPRPPCFPRP was -0.0133; that for RRIRKRPPRLPRPRPRPGIRPRP was 0.267; that for RRIRCRPPRLPRPRPRPHCIPRP was -0.468.
As for RRIRIRPPRLPRPRPRPLVHPRP, the “shrunken log2 fold change” value was -0.266.
The value for RRIRDRPPRLPRPRPRPQCYPRP was 0.0803; that for RRIRMRPPRLPRPRPRPIQAPRP was 0.295.
Regarding RRIRRRPPRLPRPRPRPMLLPRP, the “shrunken log2 fold change” value is -0.0984.
The value for RRIRIRPPRLPRPRPRPTPIPRP was 0.153; that for RRIRNRPPRLPRPRPRPRRHPRP was 0.0212; that for RRIRTRPPRLPRPRPRPAFNPRP was -0.121.
Under RRIRRRPPRLPRPRPRPMSPPRP stands -0.185; under RRIRSRPPRLPRPRPRPGRNPRP, -0.225.
The value for RRIRFRPPRLPRPRPRPNSWPRP was -0.0266.
For the sequence RRIRVRPPRLPRPRPRPADDPRP, the “shrunken log2 fold change” value was 0.203.
Consider RRIRKRPPRLPRPRPRPCEHPRP, for which the “shrunken log2 fold change” value was 0.015.
The value for RRIRWRPPRLPRPRPRPADSPRP was -0.29.
Under RRIRARPPRLPRPRPRPDAIPRP stands 1.03; under RRIRDRPPRLPRPRPRPTFWPRP, 0.588; under RRIRNRPPRLPRPRPRPRDFPRP, 0.0201.
With RRIRTRPPRLPRPRPRPLIFPRP, the “shrunken log2 fold change” value was -0.446.
Regarding RRIRKRPPRLPRPRPRPVMVPRP, the “shrunken log2 fold change” value was 0.315.
Under RRIRMRPPRLPRPRPRPRTAPRP stands 1.29.
Consider RRIRFRPPRLPRPRPRPCCAPRP, for which the “shrunken log2 fold change” value is -0.0621.
For RRIRGRPPRLPRPRPRPKFWPRP, the “shrunken log2 fold change” value was determined as 0.533.
The value for RRIRMRPPRLPRPRPRPEHMPRP was 0.147.
On to RRIRFRPPRLPRPRPRPCAHPRP, for which the “shrunken log2 fold change” value is -0.197.
Regarding RRIRYRPPRLPRPRPRPERFPRP, the “shrunken log2 fold change” value came to 0.0461.
Regarding RRIRMRPPRLPRPRPRPRYTPRP, the “shrunken log2 fold change” value came out at 0.338.
The value for RRIRKRPPRLPRPRPRPEDHPRP was 0.247; that for RRIRWRPPRLPRPRPRPGDLPRP was 0.0106.
The value for RRIRDRPPRLPRPRPRPKEKPRP was -0.0263.
The value for RRIRYRPPRLPRPRPRPHNMPRP was -0.17.
Consider RRIRQRPPRLPRPRPRPQYCPRP, for which the “shrunken log2 fold change” value came to 0.0332.
For the sequence RRIRDRPPRLPRPRPRPPFCPRP, the “shrunken log2 fold change” value was 0.284.
As for RRIRNRPPRLPRPRPRPFFNPRP, the “shrunken log2 fold change” value was -0.725.
Under RRIRRRPPRLPRPRPRPQLNPRP stands 0.159; under RRIRMRPPRLPRPRPRPFCPPRP, 0.0248; under RRIRYRPPRLPRPRPRPTIIPRP, -0.669.
Consider RRIRGRPPRLPRPRPRPAHEPRP, for which the “shrunken log2 fold change” value was found to be 0.0535.
The value for RRIRHRPPRLPRPRPRPVKKPRP was 0.0327; that for RRIRARPPRLPRPRPRPQACPRP was 0.0559.
The value for RRIRWRPPRLPRPRPRPMMYPRP was -0.339; that for RRIRLRPPRLPRPRPRPFSNPRP was -1.04.
For the sequence RRIRLRPPRLPRPRPRPKKVPRP, the “shrunken log2 fold change” value is -0.0117.
Turning to RRIRLRPPRLPRPRPRPEMYPRP, the “shrunken log2 fold change” value is -0.00133.
The value for RRIRVRPPRLPRPRPRPPFWPRP was 0.46.
Under RRIRVRPPRLPRPRPRPDCLPRP stands -0.318.
As for RRIRIRPPRLPRPRPRPAILPRP, the “shrunken log2 fold change” value turned out to be 0.089.
Under RRIRVRPPRLPRPRPRPSWAPRP stands 0.0598.
With RRIRLRPPRLPRPRPRPAEVPRP, the “shrunken log2 fold change” value is -0.193.
With RRIRARPPRLPRPRPRPEPMPRP, the “shrunken log2 fold change” value turned out to be 0.44.
For the sequence RRIRPRPPRLPRPRPRPLVDPRP, the “shrunken log2 fold change” value was 0.111.
On to RRIRKRPPRLPRPRPRPQWAPRP, for which the “shrunken log2 fold change” value was -0.0368.
Take RRIRKRPPRLPRPRPRPQQWPRP: the “shrunken log2 fold change” value was found to be 0.105.
The value for RRIRCRPPRLPRPRPRPKLMPRP was -0.0168.
Regarding RRIRKRPPRLPRPRPRPMAFPRP, the “shrunken log2 fold change” value was found to be 0.25.
Under RRIRQRPPRLPRPRPRPGFLPRP stands 0.107; under RRIRDRPPRLPRPRPRPWVSPRP, -0.0385; under RRIRGRPPRLPRPRPRPFREPRP, -0.21.
With RRIRMRPPRLPRPRPRPMTNPRP, the “shrunken log2 fold change” value was 0.165.
For RRIRSRPPRLPRPRPRPIQHPRP, the “shrunken log2 fold change” value was -0.204.
The value for RRIRMRPPRLPRPRPRPFPIPRP was 0.0281; that for RRIRHRPPRLPRPRPRPPCRPRP was -0.0923; that for RRIRVRPPRLPRPRPRPMAYPRP was -0.012.
As for RRIRQRPPRLPRPRPRPWTQPRP, the “shrunken log2 fold change” value was determined as 0.0496.
The value for RRIRWRPPRLPRPRPRPMNDPRP was -0.0845.
Turning to RRIRFRPPRLPRPRPRPMEYPRP, the “shrunken log2 fold change” value is 0.0429.
Under RRIRTRPPRLPRPRPRPGGGPRP stands 0.759; under RRIRPRPPRLPRPRPRPMSNPRP, -0.127.
The value for RRIRHRPPRLPRPRPRPGWPPRP was 0.424.
In the case of RRIRCRPPRLPRPRPRPTECPRP, the “shrunken log2 fold change” value was -0.168.
As to RRIRQRPPRLPRPRPRPLNDPRP, the “shrunken log2 fold change” value is -0.277.
Turning to RRIRDRPPRLPRPRPRPQFTPRP, the “shrunken log2 fold change” value worked out at 0.0284.

The values above are taken from the supplement of paper PMC9112550, “Optimization of the antimicrobial peptide Bac7 by deep mutational scanning” (BMC Biology, 2022).
